Measured values published in the DeepSol protein solubility set.

assay: soluble on expression in E. coli; label from the status in PepcDB or PDB records

Sequence	soluble on expression in E. coli
MATKNEELPIIDLAATEGYIVDDTDEDDPVLLAPDGTPIDTWRENYPYEERMTRDEYEKTKRALQIELLKWQNWTKDTGQRHIILFEGRDAAGKGGTIKRFNEHLNPRGARTVALEKPSPRESTSWYFQRYIEHFPCAGEIVFFDRSWYNRSGVERVMGFCTESQHAEFLREVPMLENMILGSGISLTKFWFSVTQKEQRTRFAIRQVDPVRQWKLSPMDLASLDRWDDYTRAKEEQFRYTDTDEAPWITIRSNDKKRARINAMRYILSKFEYSNKDHDLVGEPDPLIVMRGRDRIGD	not soluble
MATKPQDANTTSREAITSKADSPPRPTALIFDSGVGGLSVYQEIRQLLPDLHYIYAFDNVAFPYGEKSGEFIVERVLEIVTAVQQRHPLAIVVIACNTASTVSLPALRERFAFPVVGVVPAIKPAVRLTRNGVVGLLATRATVHASYTLDLIARFATDCKIELLGSSELVEVAETKLHGGVVPLEVLKKILHPWLSMREPPDTIVLGCTHFPLLTEELAQVLPEGTRMVDSGAAIARRTAWLISSQENVISSQDENIAYCMALDEDTDALLPVLQSYGFPKLQKLPI	not soluble
MATLDGINVKDIVKVERTSVHSHITGLGLNDRLEAEYVSGGMVGQVAARQAAGLIVKMIQEGKIAGRALLVTGEPGAGKTAIAIAISKELGEDTPFVSIVASEIYSNEINKTEALTQAFRRALGIQIKEETEVLEGEVISLEVDRSANGMGPKVGKLTMRTTDMETIYDLGSKMVDACLKEKVMPGDVIQVDKASGRVTRLGRSFNRSHDYDAMGPKVKLVQCPDGEIQKRRETVHTVCLHDIDVINSRTQGYVALFSGDTGEIKAEVRDQINKKVLEWREEGKAKFVPGVLFIDEAHMLDIECFSFLNRAIEGELSPLIIMATNRLIEKVRGTDVESAHGIPSDFLDRMLIINAIPYTKEDTAKILSIRCDEEGVKLQPTALDLLVKLQEATSLRYCIHLIAASEVIRIRSKAEIVTTDHIGSAYRLFFDTKRSEKILTEESAGFLQ	not soluble
MATPSLTDACVHCGFCLSDCPSYRVLGRETDSPRGRVYLMDSLQQGRIELSDTVVEHFDTCLGCLACTSACPSGVQYDQLIEEMRQRIAQEHRRPWPEAIWRKLLFAFLPLEHHHHHH	soluble
MATPTFDTIEAQASYGIGLQVGQQLSESGLEGLLPEALVAGIADALEGKHPAVPVDVVHRALREIHERADAVRRERFKAMAAEGVKYLEENREKDGVNSTESGLQFRVLTQGEGAIPARTDRVRVHYTGKLIDGTVFDSSVARGEPAEFPVNGVIAGWIEALTLMPVGSKWELTIPQELAYGERGAGASIPPFSTLVFEVELLEIL	not soluble
MATSNLLKNKGSLQFEDKWDFMHPIVLKLLRQESVTKQQWFDLFSDVHAVCLWDDKGSSKIHQALKEDILEFIKQAQARVLSHQDDTALLKAYIVEWRKFFTQCDILPKPFCQLEVTLLGKQSSNKKSNMEDSIVRKLMLDTWNESIFSNIKNRLQDSAMKLVHAERLGEAFDSQLVIGVRESYVNLCSNPEDKLQIYRDNFEKAYLDSTERFYRTQAPSYLQQNGVQNYMKYADAKLKEEEKRALRYLETRRECNSVEALMECCVNALVTSFKETILAECQGMIKRNETEKLHLMFSLMDKVPNGIEPMLKDLEEHIISAGLADMVAAAETITTDSEKYREQLDTLFNRFSKLVKEAFQDDPRFLTARDKAYKAVVNDATIFKAENLYFQ	soluble
MATTATRHQDSKLSEKAESILAGFKLNWMNLRDAETGKVLWQSTEDMADPKREHKAHVPKNLLKCRTVSREINFTSSVKIEKFRLEQRVYLKGTIIEEWYFDFGFVIPDSTNTWQNMIEAAPESQMFPPSVLSGNVVVETLFYDGDLLVSTSRVRLYYD	not soluble
MATWQGTNGGLLAGIGGVNSNAPSVNDIGNTLQLIRQNNDIERSGANNVGLTALQGLSGIAGVFQQEKQAQRQKEFQQAYANAYASGDRGALRQLATQYPDQIESVRKGMGFIDEEQRNSIGTLAAGARLASSSPEAMQSWLQNNAGELARVGVNPHDVAQMYQQNPRQFGEFVDHLGMNSLGPEKYFDLQDKMQGRQVTMRGQDLDSQTAARNQAITMRGQDIQANLGQQRINLDAETNRINNENKRLDRMLSAETNDLKRQEIQSRIAANNQQLQQKQQALNDGYKDGINTLTTSMFTLNDIVSSPSLKSITGLRGVIPNVPGSQAADTQARLDTFKSQAYLTAVQAMRGMGALSDAEGKKLDQAVGSLQNSQSEESFRRNAGVILNTLNQKRNEAVGKYVQQNGIKRVEAPQASIDYLKQHPELSIDFINRYGYLPSLGQ	soluble
MAVIKQDDLIQSVADALQFISYYHPVDFIQAMHEAYLREESPAARDSMAQILINSRMCATGHRPICQDTGIVTVFVRVGMDVRWDGATMSVDDMINEGVRRAYNLPENVLRASILADPAGARKNTKDNTPAVIHYSIVPGDKVEVDVAAKGGGSENKSKMAMLNPSDSIVDWVLKTVPTMGAGWCPPGMLGIGIGGTAEKAAVMAKEVLMDPIDIHELKARGPQNRIEELRLELFEKVNQLGIGAQGLGGLTTVLDVKIMDYPTHAASLPVCMIPNCAATRHAHFVLDGSGPAELEAPSLDAYPEIVWEAGPSARRVDLDKITPEEVQSWKPGETLLLNGKMLTGRDAAHKRMVDMLNKGETLPVDLKGRFIYYVGPVDPVGDEVVGPAGPTTATRMDKFTRQILEQTGLLGMIGKSERGPIAIEAIKDNKAVYLMAVGGAAYLVAQAIKKSKVLAFAELGMEAIYEFEVKDMPVTVAVDTNGESVHITGPAVWQ	not soluble
MAVIYKTTAHASAGREGVVQTVDGFTVSLAFPKPGATHQDKNNPEQLFASAYAGCFSQAVRVVLQQHQLQLATQPIVGVSVELHDQDGLFHIKAGVELAITGVDQTTAQTVITAAHAMCPFSRLIKPENFLGLTLNGAKL	soluble
MAVKLGTLLLALALGLAQPASARRKLLVFLLDGFRSDYISDEALESLPGFKEIVSRGVKVDYLTPDFPSLSYPNYYTLMTGRHCEVHQMIGNYMWDPTTNKSFDIGVNKDSLMPLWWNGSEPLWVTLTKAKRKVYMYYWPGCEVEILGVRPTYCLEYKNVPTDINFANAVSDALDSFKSGRADLAAIYHERIDVEGHHYGPASPQRKDALKAVDTVLKYMTKWIQERGLQDRLNVIIFSDHGMTDIFWMDKVIELNKYISLNDLQQVKDRGPVVSLWPAPGKHSEIYNKLSTVEHMTVYEKEAIPSRFYYKKGKFVSPLTLVADEGWFITENREMLPFWMNSTGRREGWQRGWHGYDNELMDMRGIFLAFGPDFKSNFRAAPIRSVDVYNVMCNVVGITPLPNNGSWSRVMCMLKGRAGTAPPVWPSHCALALILLFLLA	soluble
MAVRIVTDSSSGLPAEIAEELGITVVDLHLVASENQVSTAGLSALELTAAYARQLERGGDAGVVALHLSKELSSTWSAAHTAAAVFDGTVDVVDTQSVGMCVGAAAMAAARLAQGGASLRECADMARDTLRRSETWLYLHRMEEMRRSGRITTATAVVSAALATKPIMQLRGGHVELAVKTRTQSKAFARLVAVISDRCAGEPAFVAIQHHQALEAAHSLQSQLTAALPKGSSFMIMDMDQALSVHCGVGALGISVVFSSYSDTAPIDLSTTS	not soluble
MAVSPDDPLILVGRVAGGFGVRGEVRITTYTEDPLSIAGFKALKRQDGSPALTIASARKTKDGVVCRCPGVETKEAADALRGLRLYVPRSALPEPDDDEFYLTDLVGLTVRHIQTDQLLGRVKSVQNFGAGDILEITPDLGGPTWYLPFTRAAVPEVRVSEGLILADPPALVGDHEGPEEKGLDENEELGDRDAAALEHHHHHH	not soluble
MAVSVGEGPDTKPTARGQPAAVGRVVVLSGPSAVGKSTVVRCLRERIPNLHFSVSATTRCPRPGEVDGVDYHFIDPTRFQQLIDQGELLEWAEIHGGLHRSGTLAQPVRAAAATGVPVLIEVDLAGARAIKKTMPEAVTVFLAPPSWQDLQARLIGRGCETADVIQRRLDTARIELAAQGDFDKVVVNRRLESACAELVSLLVGTAPGSPGVPRGKLAAALEHHHHHH	soluble
MAWASPDGHCTVEHSADSVHLWRFEHSVYDGFDTHWTATFTPEVPERLVAQFFTHLATTTPVERVFRDVPYLVQSLDAALITPVNRAAVNPHVHHAGAQLGRAVHRRLEHHHHHH	not soluble
MAWSRVGDNIATHPLMSRLLTSCEFDHSLKNEAFGALVQLTTVSAAHLTDYIIEYGLMAQIAPGREKQLIDVLVDAGMLFRDEVDGRKVLRIVDDNELLHNRSRDEVEIDRRRAADKRNPALIPAVRYRDGDQCRWCGRTVDWRDRKGGRAATIDSLNEHRESTVDTLVVACKSCNSKRGAGEELQLLPTPTREKVHYTDHTIDWINRSEWAQHEGIHLEPRQTHLDIGQQITTPAAPSEQQQVGQAAAPLEAAARAHRAAPDVEAPFVSDPLDEAPDWVKQSLVNDHGQAAAPLMAAAPREHDHAPAAPSEQQQVGQAAAPLEAAARAHRAAPDVEAPPQHHVDNETVKPSTDLEQITDRWGDGSRSLGTGRDGNGQVGTARRRRRRRRGGRGTGRNKAHG	not soluble
MAWTSTLPAHLLNLIKNSKYVHVATCSKDCIPSVALMNYIYVPGEKLFGQTDNKNDYIIFVSPQDTQKFYNIKENPKVALLFHDWIIANNLSVGKESISGTPTPTSIPHEEQRQSELLNLLQELNQAELNQMSASIGGETEIVNPESEESKYYKDLILKANPDAKAFIFEKNTAVVKVRIDNARVSNNENRTMFLSKGKS	soluble
MAYDSRLPEQRDPATDPSANYDYQGDSVNRPDLVSALEQRVDGDVRFDTYTRELFATDASAYEQLPIGVVSPVSTEDVVAVMEYCAAEDIPVLPRGGGTSLAGQAVNEAVVLDFKRYMDE	not soluble
MCDTLILRHQGQTWFAKNSDREPAEPQRLLRLPAVRNDPEARLRTTYLDIPQTAQRHALVISQPSWIWGAEMGVNEHGVAIGNEAVFTKLTRQRGTALLGMDLLRLGLERGASAREALEVITGLLQRYGQGGPAGYRDKRIRYDNSFLIADPGEAWVLETAGNLWAAKKVERWAISNALTLGHEFDLCSRDLEDQARRQGCWDGRGDFHFARVFDTRLLPWVGGAHRRCRINQRFLDSLPGEPDWHALFAALRHHGPRGDHFRRHNNRQVCMHAGSFWRPSQTTASLVARLRDDGPLLAATGTSAPCLGLFQPLSFDPASGAAVLSQPREAVQESPWWRFEAVHRRALTDRAFRRLLRSGRDWLERELFADLEQPDWPRLAEDAAAWHACWHDQVAMQPLAQQRWWRSHAALAAALEHHHHHH	not soluble
MCGIFAYLNFLTPKKRSEIVDILVQGLQRMEYRGYDSAGIAIDGSNEIESPHSSVALLRKAGKVSVLSDFIKESSSDLDMDMEYNIHCGIAHTRWATHGSPRDVNSHPHRSNDKNEFLVVHNGIITNYREIKEYLEKKGHKFESETDTEVIAKLAQHIHDRYPDFSFRQLVETVIQQLEGAFALAFKSSRFPGQLVASRRGSPLLVGIKSNSRLQTNHFPVSFSKDAGWKWGDEKQTDGRRFMSNHATHLRDETSFVETPNNILDLSIAVRSSNGSAKMEISDSTTAVRPFDSDDWEVEYFVASDAAAIIEHTKQVLFLEDDDVAFVEDGALTIHRISRHADNGEQKREVKLLEMELQEIMKGSFKTYMQKEIFEQPDSVVNTMRGRVLPSGQVVLGGIKEYLPDIKRCRRLIMVACGTSYHSAIACRQILEELSELPVVVELASDFLDRETPIFRDDVCLFISQSGETADTLLALRYCKPRGALTIGVTNTVGSSICRESHCGIHINAGPEIGVASTKAYTSQILSLLMFALTLSDDRISMAKRREEIIDALNDLPELIREVLQLDEKVLDIAKQIYKEKSLLIMGRGLNFATCLEGALKIKELSYMHCEGIMSGELKHGPLAMVDEFLSICMVVCNDRVYKKSLNALQQVVARKGAPIIIADCTVPEGDLAGMKHILRVPKTVDCVQNILTVIPLQLLSYHIAELNGANVDRPRNLAKSVTVE	not soluble
